Data from US20130136736A1 (Ablynx, published 2013).
Changes are numbered by the printed parent chain. Each block holds one molecule with its values, some of them ahead of it.

Assays:
[1] = molecular target: ultra-large von Willebrand factor (ULvWF) (human) (UniProt P04275); test: cell-based or functional assay
[2] = molecular target: T1, human von Willebrand Factor (vWF) (human, UniProt P04275 764-2813); test: ELISA: vWF coated on the plate, nanobody titrated in 3-fold steps, detection with mouse anti-myc and anti-mouse-HRP, OD 405 nm
T1 construct: Multimeric plasma protein; The species of the vWF on the BIACORE chip and ELISA plates is not restated there; also called vWF (Red Cross); human vWF

[3] = molecular target: T1, human von Willebrand Factor (vWF); test: ELISA: vWF coated on the plate, nanobody titrated from 10 µg/ml in 3-fold steps, detection with mouse anti-myc and anti-mouse-HRP, OD 405 nm
Experimental: The plate was coated overnight at 4° C. The plate was then washed with PBS-Tween and blocked for two hours at room temperature with PBS-1% casein. After washing, the samples were applied starting at a concentration of 10 μg/ml and 3-fold dilutions were made in PBS. After a two hours incubation period, the plates were washed and mouse monoclonal anti-myc antibody at a 1000-fold dilution was applied for 1 hour at room temperature. The plates were washed and polyclonal anti-mouse-HRP (DAKO) was applied at a 1000-fold dilution for one hour at room temperature. The plates were washed and ABTS/H₂O₂ substrate was applied. The OD 405 nm was measured.

[4] = molecular target: A1A2A3 construct, P04275
[5] = molecular target: T1, human von Willebrand Factor (vWF); test: ELISA on coated vWF: supernatant of a 200 µg/ml nanobody solution heated for 1 h at RT to 90 °C, dilution series, OD 405 nm
[6] = molecular target: T1, human von Willebrand Factor (vWF); test: ELISA: vWF coated on the plate, nanobody titrated in 3-fold steps, detection with mouse anti-myc and anti-mouse-HRP, OD 405 nm; remark: listed apart in the source
[7] = molecular target: T2, pig vWF (pig, UniProt Q28833 438-2482); test: sandwich ELISA: nanobody (10 µg/ml) captured on coated anti-myc, plasma from a 5-fold dilution in 2-fold steps, detection with polyclonal anti-vWF-HRP, OD 405 nm
T2 construct: Native vWF in plasma
Experimental: A microtiterplate was coated with mouse anti-myc at 1/1000 overnight at 4° C. The plate was washed with PBS-Tween and blocked for two hours at room temperature with PBS-1% casein. After washing, the nanobodies were applied at a concentration of 10 μg/ml in PBS. After a one hour incubation period, the plates were washed and plasma (dog, pig, human, baboon and cynomologues monkey) was applied starting at a five-fold dilution and making further two-fold dilutions in PBS. The plates were incubated for 1 hour at room temperature. […] The plates were washed and ABTS/H₂O₂ substrate was applied. The OD 405 nm was measured.

[8] = molecular target: T1, human von Willebrand Factor (vWF); test: ELISA on coated vWF: supernatant of a 200 µg/ml nanobody solution heated for 1 h at RT to 90 °C, dilution series, OD 405 nm; remark: listed apart in the source
[9] = molecular target: T1, human von Willebrand Factor (vWF); test: BIACORE (SPR): vWF amine-coupled to a CM5 chip, nanobody injected at 1.3 nM
Experimental: (§1) The CM5 surface of the chip was activated by the injection of EDC/NHS (1:1 mix of 0.4 M 1-ethyl-3-(3-dimethylaminopropyl)-carbodiimide and 0.1 M N-hydroxysuccinimide in water) for 7 minutes. […] The excess of reactive groups was deactivated with 1 M Ethanolamine-HCl (pH 8.5) for 7 minutes. The flowrate was kept constant during the immobilization procedure at 5 ul/min The eluent buffer was 0.01 M HEPES (pH 7.4) with 0.15 M NaCl, 3 mM EDTA and 0.005% Surfactant P20.

[10] = molecular target: T1, human von Willebrand Factor (vWF); test: as above; remark: listed apart in the source
Experimental: as §1

Molecule: ADAMTS-13 (from UniProt Q76LX8 75-1427) (enzyme)
cleavage of ULvWF platelet strings on perfusion of pooled normal plasma containing ADAMTS-13 [1]: > 95%
cleavage of ULvWF platelet strings on perfusion of pooled normal plasma containing ADAMTS-13 and ALX-0081 (10 µg/ml) [1]: 95%

B2: 12A5H2 (VHH)
VHH: EVQLVESGGGLVQPGGSLRLSCAASGRIFSIGAMGMYRQAPGKGRELVATITSGGSTNYADPVKGRFTISRDGAKNTVYLQMNSLRAEDTAVYYCYANLKQGSYGYRFNDYWGQGTQVTVSS
notes: Humanised 12A5, monovalent; TALON-purified, so His-tagged
EC50 (read off the curve) [2]: ~0.03 µg/mL

B3: 12C9 (VHH)
VHH: AVQLVESGGGLVQPGGSLKLSCATSGSIFSSSAMAWYRQASGKQRELVATITSGGRTSYADSVKGRFTISRDNAKNTVYLQMNSLKPEDTAVYDCNFVVDGKRAPWGQGTQVTVSS
notes: Monovalent llama Nanobody; TALON-purified and detected with anti-myc, so tagged (myc/His)
binding result [3]: binds

B5: ADAMTS-13 (protein)
chain: AAGGILHLELLVAVGPDVFQAHQEDTERYVLTNLNIGAELLRDPSLGAQFRVHLVKMVILTEPEGAPNITANLTSSLLSVCGWSQTINPEDDTDPGHADLVLYITRFDLELPDGNRQVRGVTQLGGACSPTWSCLITEDTGFDLGVTIAHEIGHSFGLEHDGAPGSGCGPSGHVMASDGAAPRAGLAWSPCSRRQLLSLLSAGRARCVWDPPRPQPGSAGHPPDAQPGLYYSANEQCRVAFGPKAVACTFAREHLDMCQALSCHTDPLDQSSCSRLLVPLLDGTECGVEKWCSKGRCRSLVELTPIAAVHGRWSSWGPRSPCSRSCGGGVVTRRRQCNNPRPAFGGRACVGADLQAEMCNTQACEKTQLEFMSQQCARTDGQPLRSSPGGASFYHWGAAVPHSQGDALCRHMCRAIGESFIMKRGDSFLDGTRCMPSGPREDGTLSLCVSGSCRTFGCDGRMDSQQVWDRCQVCGGDNSTCSPRKGSFTAGRAREYVTFLTVTPNLTSVYIANHRPLFTHLAVRIGGRYVVAGKMSISPNTTYPSLLEDGRVEYRVALTEDRLPRLEEIRIWGPLQEDADIQVYRRYGEEYGNLTRPDITFTYFQPKPRQAWVWAAVRGPCSVSCGAGLRWVNYSCLDQARKELVETVQCQGSQQPPAWPEACVLEPCPPYWAVGDFGPCSASCGGGLRERPVRCVEAQGSLLKTLPPARCRAGAQQPAVALETCNPQPCPARWEVSEPSSCTSAGGAGLALENETCVPGADGLEAPVTEGPGSVDEKLPAPEPCVGMSCPPGWGHLDATSAGEKAPSPWGSIRTGAQAAHVWTPAAGSCSVSCGRGLMELRFLCMDSALRVPVQEELCGLASKPGSRREVCQAVPCPARWQYKLAACSVSCGRGVVRRILYCARAHGEDDGEEILLDTQCQGLPRPEPQEACSLEPCPPRWKVMSLGPCSASCGLGTARRSVACVQLDQGQDVEVDEAACAALVRPEASVPCLIADCTYRWHVGTWMECSVSCGDGIQRRRDTCLGPQAQAPVPADFCQHLPKPVTVRGCWAGPCVGQGTPSLVPHEEAAAPGRTTATPAGASLEWSQARGLLFSPAPQPRRLLPGPQENSVQSSACGRQHLEPTGTIDMRGPGQADCAVAIGRPLGEVVTLRVLESSLNCSAGDMLLLWGRLTWRKMCRKLLDMTFSSKTNTLVVRQRCGRPGGGVLLRYGSQLAPETFYRECDMQLFGPWGEIVSPSLSPATSNAGGCRLFINVAPHARIAIHALATNMGAGTEGANASYILIRDTHSLRTTAFHGQQVLYWESESSQAEMEFSEGFLKAQASLRGQYWTLQSWVPEMQDPQSWKGKEGT
proteolytic cleavage of the A1-A2-A3 fragment by normal pool plasma (Western blot) [4]: resulting in proteolytic cleavage of the fragment

B6: 12A2H1 (VHH)
VHH: EVQLVESGGGLVQPGGSLRLSCAASGRTFSYNPMGWFRQAPGKGRELVAAISRTGGSTYYPDSVEGRFTISRDNAKRMVYLQMNSLRAEDTAVYYCAAAGVRAEDGRVRTLPSEYTFWGQGTQVTVSS
notes: Humanised 12A2, monovalent
binding result [5]: binds

B7: 12B6H1 (VHH)
VHH: B6 VHH with E46D, L47V, P61A, D62R, T116N
notes: Humanised 12B6, monovalent
EC50 (read off the curve) [6]: ~0.02 µg/mL

B10: 12B6H2 (VHH)
VHH: B6 VHH with L47V, P61A, D62R, T116N
notes: Humanised 12B6, monovalent
EC50 (read off the curve) [6]: ~0.01 µg/mL

B11: 12A2H4 (VHH)
VHH: B6 VHH with M78S
notes: Humanised 12A2, monovalent
binding result [8]: binds

B12: 12B1 (VHH)
VHH: QVQLVESGGGLVQAGGSLRLSCAASGRTFSNYGMGWFRQAPGKEREFVTSISWSGTYTAYSDNVKGRFTISRDNAKNTVYLQMDSLKPEDTAVYYCAAQSRYRSNYYDHDDKYAYWGQGTQVTVSS
notes: as for B3
EC50 (read off the curve) [3]: ~0.02 µg/mL

B14: 12B6-3a-12B6 (VHH)
chain: QVQLVESGGGLVQAGGALRLSCAASGRTFSYNPMGWFRQAPGKERDVVAAISRTGGSTYYARSVEGRFTISRDNAKRMVYLQMNALKPEDTAVYYCAAAGVRAEDGRVRTLPSEYNFWGQGTQVTVSSAAAEVQLVESGGGLVQAGGALRLSCAASGRTFSYNPMGWFRQAPGKERDVVAAISRTGGSTYYARSVEGRFTISRDNAKRMVYLQMNALKPEDTAVYYCAAAGVRAEDGRVRTLPSEYNFWGQGTQVTVSS
notes: also called bivalent 12B6
binding result [9]: binds

B15: 12A2-3a-12A2 (VHH)
chain: QVKLEESGGGLVQAGGALRLSCAASGRTFSYNPMGWFRQAPGKERDLVAAISRTGGSTYYPDSVEGRFTISRDNAKRMVYLQMNNLKPEDTAVYYCAAAGVRAEDGRVRTLPSEYTFWGQGTQVTVSSAAAEVQLVESGGGLVQAGGALRLSCAASGRTFSYNPMGWFRQAPGKERDLVAAISRTGGSTYYPDSVEGRFTISRDNAKRMVYLQMNNLKPEDTAVYYCAAAGVRAEDGRVRTLPSEYTFWGQGTQVTVSS
notes: also called bivalent 12A2
binding result [10]: binds

B16: 12B6-GS9-12B6 (VHH)
chain: QVQLVESGGGLVQAGGALRLSCAASGRTFSYNPMGWFRQAPGKERDVVAAISRTGGSTYYARSVEGRFTISRDNAKRMVYLQMNALKPEDTAVYYCAAAGVRAEDGRVRTLPSEYNFWGQGTQVTVSSGGGGSGGGSEVQLVESGGGLVQAGGALRLSCAASGRTFSYNPMGWFRQAPGKERDVVAAISRTGGSTYYARSVEGRFTISRDNAKRMVYLQMNALKPEDTAVYYCAAAGVRAEDGRVRTLPSEYNFWGQGTQVTVSS
notes: also called bivalent 12B6
binding result [9]: binds

Now from value to molecule:

EC50 (read off the curve) [2]: ~0.005 µg/mL
B1: 12A5H1 (VHH)
VHH: B2 VHH with A74P
notes: as for B2

EC50 (read off the curve) [3]: ~0.02 µg/mL
B4: 14F8 (VHH)
VHH: AVQLVESGGGLVQAGESLRLSCTSSGRAFSYYNTGWFRQAPGKEREFVAAISWSGGLTYYADSVKGRFTISRDNAKDMVYLQMASLKPEDTAVYYCAANRRQKTVQMGERAYDYWGQGTQVTVSS
notes: as for B3

binding result [7]: binds
B8: 12A2 (VHH)
VHH: B6 VHH with E1Q, Q3K, V5E, P14A, S17A, G44E, E46D, S85N, R87K, A88P
notes: 12B6 homologue, monovalent Nanobody

EC50 (read off the curve) [3]: ~0.02 µg/mL
B9: 12B6 (VHH)
VHH: QVQLVESGGGLVQAGGALRLSCAASGRTFSYNPMGWFRQAPGKERDVVAAISRTGGSTYYARSVEGRFTISRDNAKRMVYLQMNALKPEDTAVYYCAAAGVRAEDGRVRTLPSEYNFWGQGTQVTVSS
notes: as for B3

binding result [3]: binds
B13: 12E3 (VHH)
VHH: B12 VHH with Q1E, S30N, T56S, S61A, E89G, R103S
notes: as for B3

binding result [10]: binds
B17: 12A2-GS9-12A2 (VHH)
chain: QVKLEESGGGLVQAGGALRLSCAASGRTFSYNPMGWFRQAPGKERDLVAAISRTGGSTYYPDSVEGRFTISRDNAKRMVYLQMNNLKPEDTAVYYCAAAGVRAEDGRVRTLPSEYTFWGQGTQVTVSSGGGGSGGGSEVQLVESGGGLVQAGGALRLSCAASGRTFSYNPMGWFRQAPGKERDLVAAISRTGGSTYYPDSVEGRFTISRDNAKRMVYLQMNNLKPEDTAVYYCAAAGVRAEDGRVRTLPSEYTFWGQGTQVTVSS
notes: also called bivalent 12A2

binding result [3]: binds
B18: 12D11 (VHH)
VHH: AVQLVDSGGGLVQAGGSLRLSCTASERTTFSSYTLGWFRQAPGKEREFVGGISWSGVSTDYAEFAKGRFTISRDHAANTVYLEMNSLKPEDTAVYYCAALGRYRSNWRNIGQYDYWGQGTQVTVSS
notes: as for B3

binding result [9]: binds
B19: 12B6-GS30-12B6 (VHH)
chain: QVQLVESGGGLVQAGGALRLSCAASGRTFSYNPMGWFRQAPGKERDVVAAISRTGGSTYYARSVEGRFTISRDNAKRMVYLQMNALKPEDTAVYYCAAAGVRAEDGRVRTLPSEYNFWGQGTQVTVSSGGGGSGGGGSGGGGSGGGGSGGGGSGGGGSEVQLVESGGGLVQAGGALRLSCAASGRTFSYNPMGWFRQAPGKERDVVAAISRTGGSTYYARSVEGRFTISRDNAKRMVYLQMNALKPEDTAVYYCAAAGVRAEDGRVRTLPSEYNFWGQGTQVTVSS
notes: also called bivalent 12B6
